We go through 4 molecules from US20250270343A1 (Alector, published 2025).

Usually EC50 stands for the concentration giving half of the maximal effect. Lower therefore signals a more potent agent.

Assay [1] has as its target T1, full-length untagged human GPNMB expressed on cells (human, UniProt Q14956 23-572).
T1 construct: also used here for GPNMB on human monocyte-derived macrophages in the functional assays; also called huGPNMB; Freestyle293-huGPNMB+
T1 sequence: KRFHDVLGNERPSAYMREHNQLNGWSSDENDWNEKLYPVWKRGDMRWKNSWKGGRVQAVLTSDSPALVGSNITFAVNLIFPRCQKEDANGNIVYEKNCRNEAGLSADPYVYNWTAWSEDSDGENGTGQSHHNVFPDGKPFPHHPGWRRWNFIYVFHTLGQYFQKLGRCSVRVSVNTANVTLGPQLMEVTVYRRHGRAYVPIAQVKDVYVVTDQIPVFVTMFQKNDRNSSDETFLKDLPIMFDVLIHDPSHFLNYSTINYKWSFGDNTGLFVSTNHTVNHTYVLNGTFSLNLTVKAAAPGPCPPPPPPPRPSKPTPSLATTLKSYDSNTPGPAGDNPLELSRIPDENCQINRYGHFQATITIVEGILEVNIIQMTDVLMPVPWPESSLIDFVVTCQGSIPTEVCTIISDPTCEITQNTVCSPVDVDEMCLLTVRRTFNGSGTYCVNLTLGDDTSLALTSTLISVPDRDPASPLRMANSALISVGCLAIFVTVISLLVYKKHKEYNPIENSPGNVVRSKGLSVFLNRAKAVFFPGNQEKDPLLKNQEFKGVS
As to the kind of experiment: FACS, FS293-huGPNMB+ cells. The protocol:
Recombinant anti-GPNMB antibodies of the present disclosure were examined for their ability to bind human and/or mouse GPNMB expressed on Freestyle293-huGPNMB+ or B16F10 cells, respectively. B16F10 cells are a murine melanoma cell line from a C57BL/6J mouse that endogenously express high levels of mouse GPNMB. The antibodies were also tested for their ability to bind to a human macrophage cell line (U937 cells) engineered to express human GPNMB. Cells were harvested, plated at 100,000 cells/well in a 96-well round bottom plate, and incubated in 100 μl FACS buffer (PBS containing 2% FBS, 2 mM EDTA) containing anti-GPNMB monoclonal antibodies of the present disclosure for 30 minutes on ice. Cells were then washed and incubated in 100 ul FACS buffer containing 1 μg/ml APC-conjugated anti-human IgG secondary antibody for 30 minutes in ice. Cells were washed twice in cold FACS buffer and acquired on a BD FACS Canto. Data analysis and calculation of MFI values was performed with FlowJo (TreeStar) software version 10.0.7.
Importantly, several anti-GPNMB antibodies of the present disclosure also bound to the human macrophage cell line U937 cells engineered to express human GPNMB (U937/huGPNMB+) (FIG. 2C). In FIG. 2C, the first data point in each pair corresponds to U937/huGPNMB+ cells, and the second data point in each pair corresponds to U937/huGPNMB− cells. No anti-GPNMB antibodies bound to U937 cells deficient in human GPNMB expression (U937/huGPNMB−).
In general terms: A flow cytometer gives signals particle by particle.

In assay [2] the target is T1, full-length untagged human GPNMB …. The assay is described as follows: FACS titration, FS293-huGPNMB+ cells. The protocol: Cell-based binding measurements were also performed to measure the apparent affinities of anti-GPNMB antibodies of the present disclosure to cell-surface expressed GPNMB. Serial dilutions of the monoclonal anti-GPNMB antibodies were added to 100,000 Freestyle293-huGPNMB+ or B16F10 cells and allowed to achieve binding equilibrium at 4° C. After addition of fluorescently labeled secondary antibody and brief washing steps, MFI values as a function of titrated antibody concentration was recorded via FACS analysis. Curves were fit using nonlinear regression analysis with Graphpad Prism 6 software.

Assay [3] has the same target. The assay is described as follows: cell-based or functional assay.

B1: anti-GPNMB antibody GPN-48 (antibody, human IgG1, V domains shown)
VH: QVQLQQSGPELVKPGASVKLSCRASGYGFSSFWMNWVKQRPGKGLEWIGRIYPGKGDTLYNGKFKDKATLTADESSSTAYMQLSSLTSEDSAVYFCARSIYYYDYWYFDVWDTGTTVTVSS
VL: DIVMTQSHKFMSTSVGDRVNITCKASQDVNSAIAWYQQKPGQSPKLLIYSASYRFIGVPDRFTGSGSGTGFTFTISSVQAEDLAVYYCQQHYTTPLTFGAGTKLELK
notes: chimeric
With B1, the “MFI fold over background” value in assay [1] amounted to 9.7 fold. The same molecule returned an EC50 in assay [2] of 18.8 nM. In assay [3], the “CD40 (FoB)” value worked out at 1.06 FoB, the “CD80 (FoB)” value was 1.06 FoB, the “GCase (FoB)” value was found to be 1.02 FoB and the “PDL1 (FoB)” value worked out at 1.14 FoB.

B2: anti-GPNMB antibody GPN-37 (antibody, human IgG1, V domains shown)
VH: EVQLVESGGGLVQPGRSLKLSCAASGFTFSSKSGMAWVRQAPTKGLEWVASISNGGGDTYYRDSVKGRFTISRDNAKNTQYLQMDSLRPEDTATYYCARHRDYGYDAYFDYWGQGVMVTVSS
VL: DIQMTQSPASLSASLGETVTIECLASEDIYSSLAWYQQKPGKSPQLLIYDASSLQDGVPSRFSGSESGTQYSLEINSLQSEDAATYFCQQHHDYPYTFGAGTKLELK
notes: chimeric
Turning to B2, the “MFI fold over background” value in assay [1] stood at 105 fold. The molecule further displayed an EC50 in assay [2] of 0.75 nM. The “GCase (FoB)” value in assay [3] is 1.01 FoB.

B3: anti-GPNMB antibody GPN-03 (antibody, human IgG1, V domains shown)
VH: QVQLQQSGPELVKPGASVKLSCKASGYTFTNYYMYWVKQRPGQGLEWIGEINPRNGGTNFNEKFKSKATLTVDKSSSTAYMQLSSLTFEDSAVYYCTTGLAYWGQGTLVTVSA
VL: DVVMTQTPLSLPVSLGDQASISCRSSQSLVHSDGNTYLHWYLQKPGQSPKLLIYKVSTRFSGVPDRFSGSGSGTDFTLKISRVEAEDLGVYFCSQSTHVPWTFGGGTKLEIK
notes: chimeric
For B3, the “MFI fold over background” value in assay [1] was 89.2 fold. For the same molecule, in assay [2], the midpoint of the response, the EC50, lay at 3.38 nM. Moreover, in assay [3], the “CD40 (FoB)” value stood at 1.45 FoB, the “CD80 (FoB)” value was determined as 1.4 FoB, the “GCase (FoB)” value worked out at 1.47 FoB and the “PDL1 (FoB)” value stood at 1.32 FoB.

B4: anti-GPNMB antibody GPN-06 (antibody, human IgG1, V domains shown)
VH: QVQLQQSGAELVKPGASVKLSCKASGYTFTNYYMYWVKQRPGQGLEWIGEINTRNGGTNFNEKFKSKATLTVDKSSSTAYMQLSSLTSEDSAVYYCTTGFAYWGQGTLVTVSA
VL: DIQMTQSPASLSASVGETVTITCRASENIYSYLVWYQQNQGKSPQLLVYNAKTLAEGVPSRFSGSGSGTQFSLKINSLQPEDFGTYYCQHHYGTPFTFGSGTKLEIK
notes: chimeric
B4: the “MFI fold over background” value in assay [1] worked out at 66.4 fold. In assay [2], this molecule returned an EC50 of 1.61 nM. In addition, in assay [3], the “CD40 (FoB)” value came out at 1.44 FoB, the “CD80 (FoB)” value is 1.38 FoB, the “GCase (FoB)” value turned out to be 1.58 FoB and the “PDL1 (FoB)” value came to 1.61 FoB.
